From IntAct's records for PubMed 30545121

B1: Ribosome maturation protein SBDS (Homo sapiens), Q9Y3A5 (parent)
chain: MSIFTPTNQIRLTNVAVVRMKRAGKRFEIACYKNKVVGWRSGVEKDLDEVLQTHSVFVNVSKGQVAKKEDLISAFGTDDQTEICKQILTKGEVQVSDKERHTQLEQMFRDIATIVADKCVNPETKRPYTVILIERAMKDIHYSVKTNKSTKQQALEVIKQLKEKMKIERAHMRLRFILPVNEGKKLKEKLKPLIKVIESEDYGQQLEIVCLIDPGCFREIDELIKKETKGKGSLEVLNLKDVEEGDEKFE
partner: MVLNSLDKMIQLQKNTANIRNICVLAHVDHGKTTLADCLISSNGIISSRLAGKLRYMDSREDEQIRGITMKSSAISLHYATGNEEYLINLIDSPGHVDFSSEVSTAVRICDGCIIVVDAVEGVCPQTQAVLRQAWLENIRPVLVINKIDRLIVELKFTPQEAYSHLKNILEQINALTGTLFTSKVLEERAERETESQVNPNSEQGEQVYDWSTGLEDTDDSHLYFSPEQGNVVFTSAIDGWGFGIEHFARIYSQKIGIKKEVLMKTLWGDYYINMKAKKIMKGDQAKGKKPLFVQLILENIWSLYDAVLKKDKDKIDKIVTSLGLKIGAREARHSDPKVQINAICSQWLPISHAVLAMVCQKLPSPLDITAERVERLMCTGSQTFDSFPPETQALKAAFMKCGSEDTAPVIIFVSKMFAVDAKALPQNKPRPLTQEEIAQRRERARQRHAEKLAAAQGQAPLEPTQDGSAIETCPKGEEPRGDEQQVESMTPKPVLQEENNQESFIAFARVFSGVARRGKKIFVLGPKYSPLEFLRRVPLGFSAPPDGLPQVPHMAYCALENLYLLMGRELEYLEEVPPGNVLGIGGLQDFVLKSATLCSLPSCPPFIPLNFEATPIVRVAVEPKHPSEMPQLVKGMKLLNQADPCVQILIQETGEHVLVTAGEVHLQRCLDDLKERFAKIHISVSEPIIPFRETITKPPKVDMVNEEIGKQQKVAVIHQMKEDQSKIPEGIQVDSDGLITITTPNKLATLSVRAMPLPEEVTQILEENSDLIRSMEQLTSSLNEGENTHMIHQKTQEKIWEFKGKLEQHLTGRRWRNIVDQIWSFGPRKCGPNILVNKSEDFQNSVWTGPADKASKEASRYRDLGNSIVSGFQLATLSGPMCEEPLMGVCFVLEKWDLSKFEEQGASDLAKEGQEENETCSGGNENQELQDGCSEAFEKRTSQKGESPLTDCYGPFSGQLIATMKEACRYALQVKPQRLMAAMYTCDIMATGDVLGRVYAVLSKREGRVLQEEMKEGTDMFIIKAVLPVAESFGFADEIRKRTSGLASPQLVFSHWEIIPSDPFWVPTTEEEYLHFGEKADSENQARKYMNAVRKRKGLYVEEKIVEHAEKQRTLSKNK

Variants of: B1
Conditions: with efl1_human EFL1, Q7Z2Z2

| effect of a mutation on the interaction | Variant |
| --- | --- |
| disrupting interaction strength | S143L |
| decreasing interaction strength | I167T |
| decreasing interaction strength | R19Q |
| decreasing interaction strength | K67E |

More lines, now with the values behind:

| Variant | effect of a mutation on the interaction |
| --- | --- |
| R175W | decreasing interaction strength |
| I212T | disrupting interaction strength |
| R126T | decreasing interaction strength |
